Experimental data taken from the NTF2 design screens of Basanta et al. (2020).

experiment: protease stability score; higher = more stable; yeast display proteolysis, trypsin and chymotrypsin;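 note: relative to predicted unfolded state with 0 unfolded-like and 1 meaning tenfold more protease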

Sequence | protease stability score
DEEHEFLITMVKLVSTWFLTGDFETYIDLADPNTRQHVNGRYSVGREDAVKLEEEMLREIRIRDIRVKHIIRQGDKIELEFRFHMEVDGRVEDITVEVRIFLVNGRLHFLEIRFD | 0.743
NEEEEDMEHATKEHMELWRTGDEKRITELADPNVRVHVGEKEYHGREKLSEHIMRLGFDHVELTHFDVQGEKVISHIRVRFNGRDIEFLLIVLKVDGRWYEEQVNIRVS | 0.66
DSVEELAKRSVELLLRLLKTGDEEEISRLADPDTRLVIGEFEFHGMEKVEHSWRKMGFTIHEWRIHDVEVQGDKLIVHVHQNIEFNGVHEEFRSIIIARKINGRWRLKSLHWK | 1.67
DEDTEIALKLHRLILHFIHTGDWENFAKYLDPRTKLHVGEFNNVGMEEIRKTWKHLRLRIDMYDERRVEVIDGRLHVEGEIRSTVHIGDKELHFERDSNFILVVINGRVKRIEINIV | 1.47
SEEEKEARESIHRFEAALKTGNEESLFELLDPHVRIDVNGQELHGWKEWKHIVHENKKRVKGARFRIHHIEIINGRIHLDGEVSINGKDIRTEYIIEKIDGVWRLTEVIIR | 1.28
DEHTKLLEDLVKILLFIRKTGDEDTFNKLFDPNVRLVQGDKTYHGRETFNKTMREWRIHHFEIKRSHFIGEWAEIDGHEDGDINGQKIRTDVEIILIIIDGRIKSIEYRPL | 0.929
DEEKEIHEELVRIWNHAVNTGNEELMERLMDPNVRLLYNGVDLIGMEHAREFNKRFDHLKIRRNEIKSFRVQGNKIDSDTHVDVELNINGKTLRVQQDQHWVVLKVDGRWYIHKIEIL | 0.799
SEEEEVAWEAVEILSTFILTGDFESLNKLFDPHVRVRIGDKELHGRETTNKIFRKEREEHGIEIRHIHVHDVHVINGRIHADVEHKIRINGKEDSRRVEWIIEKYNGRWIVREIRVH | 1.35
DEEEKDIRKALEWFWESFKTGDEDSVRKMLDPDTRIIYGDKEHHGRENASRFIHELKRRMGIKHTEIRLNSMEVQGDKVSFYTILILRFDGREIRIETHIEARKVDGRWFTTSIEFH | 1.42
REEEEISKNIAELFEHTLRTGDEKLFLKLADPHVKNEQGEFDSVGREEWHRQFREILNKWGVDRIHSQERRFTDYDGRLEMHVEMRFNGKRVEVRMRVEKYDGRWILTELHIRIE | 0.655
DEEEELTKRFLDIMLHNLKTGNEEEISKMADPNVKLDIGDKENHGRESMSRAWHEELRRLGAKHIDVRSVELQGDKLIIRMRLEVDGRTFEVLIIIIVVDGRLKHIQFKSH | 0.704
NEDEHRARFIFRILTKAILTGDEDFLHRFADPNVRIHVNGVNLIGMEEWLRHLKELRIHFITSHVREIDKIDGVMIVHGEFVIDGEVNGKRDTWHTEIHLVITKVNGRWILHELHTR | 2.58
DEEDEITDRLAKLLQHAYHTGDWKLWLNLADPHVRVDFNGVEIHGREEITDWFRKHYRDLGVTRFEVHVHHIHNIGDKIVQETHLLVNGRTFRTEVTIIVINGRVKSEHVNLR | 0.848
SDEEKDAKRAIEIYLRMVETGDEETSKELMDPNVRMHVNGQDVHGRERVAKLFHELSRRIDHHEVRLDRWDVQGDKLIIHTEIIWRVNGVEIRRRTLIIMRKFNGRWYIEELNIE | 0.181
EEDREHAREILRQLHHWFMTGDEEKWSKLMDPDARHHIHVGDKHSEYHGREEVIRFLRELIRHWRIDEVRIRRLHSIDGRVHSDIIVDGQVDGRHDRRDYELRVSVVDGRLKEVTIIVH | 1.07
SEDEKHAHEFLEQFIRDWVTGNEESFELMLDPDMRLNINGRDFHGREEAVRHFSHRFKQLGVKHIELKEVDIDVFDGKVHSTYDGVERFNGQELRVRIEVEVLKINGQWYLHRVVVKIE | 2.27
DESTEHLHRFFDLLIEWIRTGDEESLNKNADPNTRVEAENHEEHGREKFSKHLSEIMTHMRSHFVLRHVSFVGDKAIFDVEVIIIVNGREIKVRTFIIVVKINGRWLLKSVHIE | 1.6
SEIDHIVKELIRRESEYLKTGDEDAFHDLFDPSTRIEINGQEFHGREWHKHLLKELRFHSIELHDWRIVGDKVEMDTRMLTEVGDKRDYRRTTMHATKFDGKWYLTRVIIE | 1.24
DEEEKESEEAFRIHKEVLETGDEHLIERMLDPNTRIIIGDKNIHGRESALETMIKLGVKHVHIRRWNDFNGRAENDVQMRFNGRTHEVHLFALKFNGRWLMHEIEFR | 1.25
SEEEEMLKHALEILTEVTDTGNWEEYEKLLDPDVRVHIGDKTLVGMEEILRYWMEYFKSLGVDHVETRVKEISHQGDKMHMDTTLRIHQGDKDLEFHVEIHAEKVNGRWFIKEINFE | 1.75
DERKKATKETMRLEEEARNTGDEHELTKLVDPHVRLVIDGVNFIGWEVFLKRFNDLGADHVELRIDEIELIGDKVIVHGTLRIRVGDKETQEKVELYWLKINGRWVLEQVNHK | 1.71
DEDKEIAEKVAREVFHNFMTGDEDRHLELADPHTRLRVGEWENHGRDQVKRMFERQRRRFDHLERIEIKDVRIYDGVVHLHVEVHGVINGVSTTLEMRVYFVVVNGQLKRSSIHIH | 0.373
HEEEERLKEVLELVVESFRTGDFNYLKNLIDPNVRVTVGDKDVHGRDFFVRIMSEMRVTHYEFRHVERFNGQAHIDGELDIRIGDKRERHEIKIITLKINGKWYMETLIIQ | 1.18
SEEEDESKLATELLIKLLRTGNEHLSERLMDPNMRIVVNGVELHGREEAQRHMREMITQIKNAKIEIRDERTQGEYIKVNMILHYGDKTIDLRVVLVKVDGRWKITEIVLN | 1.8
DEDHELVHRAIRDLFRALDTGDEDALEEMMDPHTRLHVGDKIYHGRDNVLRFWRRLGVDHVKVHLHDVRIQGEKIDQNTELRIQIGDKRITTETRIIMFKFDGRWRRESVHIE | 1.01

Sequence | protease stability score
SEDEHELREFVNRYLHAMKTGDEDMLRDLLDPHVRFLIDGKNYHGREWVVAIFREFGIDRVEFELKDSEVQGDKVHIDGRVHINGQERSTEFRLEKYNGKWFLREEHYH | 1.5
SEEEEWAHELMRLLIEFNETGDEHELHNLIDPNVRIVIGEYTIIGREIAIEWTRQARIKRVHIEDYRFQGDKLHVDSRSNGKYGDKEDTLKVEIIVEKINGKWVVREVRVK | 2.06
DEKQEFIERIAKELLDSWLTGDEEHLRNMMDPHVRTDVNGREFHGREETIKAMQILGVDHLEIKDYRVINGRIHANSRMWIGDKQIETHLILRVVNGRVKEIKIEIR | 1.97
SEQHKIAQEMAERILELWQTGDEDTFRYLADPHYRLHIIINGKHHDHHGREEWDKWYRELLDRIDHVRLIWRSVETQGDKLRVDGELVLIIDGKRIVEKVHLEFRVIDGVLRHETIKVR | 1.48
TERDMFIETYIQIFIEHVRTGDEEALARLADPNVRIRVGDKHLHGWHELRRFFHEWRVKDLDFRDYRYYDGRVEIRGFERVEFNGQERDMEVIFHFVKINGRWYLEETEIR | 2.32
EEAEQESKNFSEVVHRSLETGDEDNLMNNADPHVRSRIHVGDKRITSHGREVMELILERFKHARVVPTDIEVINGVAIIHMTMEYGDKELRIHLIFFKIDGKWILTHIIIRVD | 0.056
TEEDKMEHDYAKLFMFLERTGDETLFEKLVDPDVKHIFDGVHLHGREEVASFLHHLLREWRIHHIDLKRVDVVNGKIEIDGRRNGDFDGKRYETHFTIHVFLYDGRIKWFEIRIR | 1.46
DEDERFTKFAWELLVKALVTGDEDSLKDLFDPHARIFYNGRINHGRESFVKHLMEIRFKRIEMRRFDFFDGRVRMEGEVEGEVDGKEDHYRIEIVVKKYDGRWELKEFRLV | 1.68
DEEHEWAQRIIEYLSKNEKTGDEDSARELADPNMRFEIDGVEIVGMETWVRRFLELRVEDLTMDVEHIHVQGNFVHIQTRLELHGHINGRRTRYTTTMRLFVLKINGKWIITHVKYE | 1.45
SRAEEEARHLLHLLIHSLNTGDEDTSRKMLDPHVRLIIDGREHHGREDLLWFLRFLGFDHVHHVELHDLHDVNGRIKVDVKFHMFVGDKLIKTTVIYFILKINGRWVFESIKVE | 1.23
SEEDEEIHRNLRILVEAIHTGDETTMSKLIDPHARLKVGDKDHHGREKMTEFLIELGIDHIVFRRTRIINGRAEHHGHIKVGDKKMETRIISDKIDGKWIITEVIIH | 1.51
DEDTEKVERIAKEVINLHETGDWENWSKQADPHTRVELNVDGQHFEYIGREKFREALEWLGIKHSHFHHIEIIGDKLHVDGYSFFNGRRTRVELRFVIVNGRIKHQIIIIK | 0.848
DEEEEMVREVLHRVIHNILTGDEDSVSRMADPHVRVKEIINGKEFTLHGREMMLHMIREWRNRADHVEIHIRRSRVINGRLDSHGLLIIEINGKEIRHDTNLHLYVVDGVIKILTWNIE | 1.45
SEEEQELYRTAKLMLESMTTGNEELNKRLADPNVRIHWNGVENHGWRIFRENLEELRIHLKDWRFRRFDLYNGVALLDIEVQIDIEIGDKRIEYETQTILLLFVVNGRIKSISMRIL | 1.07
SEEEEEIERMFKDWSRAVRTGDEERYDHLADPNVRIHIGDKDVHGRENFIKYLHHIRIRDVRLRDFRIYDGRVELDIEVDRHVNGRDDRTQVIMVLLKFNGQWHVESVYVK | 1.2
HDDQKESHEWAKLFEDWLQTGDEESILKQLDPHVRIEIGDKRNHGREELHRYEHEFWTKFGIDHIHIDDIRVQGEKVHLETTVIVNGRKFQQIIIVVFIDGVMQRLVIEDR | 0.798
SERDEEAKHLSEEIIRLWRTGDWKTFVRMLDPNDRMEVDGQSFHGMEDVIKFLLDFWKHLRIEDIRFRDLKYQGDKASSHTEVDVRIGDKQTRLHTEVDVLVVNGKLKSHRIKIE | 1.08
DEEDEDAHYALKLLLKMVHTGNEEDMQRYLDPNVRVEQGDYHYHGREASEIIKNRFKNVKVKVDHYEIQGEYVNLKVTIDVNGKHKQSTIIVHKFDGRWLIEKIIII | 2.48
SHLSEIAEEIMRELAHAQITGDEHTISRLLDPDTRVEFNGQELHGRDSWVKFLRELGVDHIEIRLEIKRMRIFENRVEIDGVDHIIIRYNGREERREIPSHWDLMKIDGRWSIHSVRAE | 1.4
SEEEKLQREMSKRWIEEVFTGNEEVFEQLADPNTIIDINGQHLHGMETFSKWSREHIKKLGWTQFDIKMRDSKVIGNKAKLDLELHVNGKVVKVEVNLEVIDGRIKKIEERHH | -0.143
SETEEAVKKVTHDLWHALLTGDEEIIRDLFDPHTKILINGVELHGMDEHKDFLDRFDHIHVHDRRIETVIVQGDKAISIGHIHVRFEYGDKHVSVHSEQRLIITKIDGKWIIRFVEIG | 1.22
DEEKRFHHKLLRLFLESFLTGDWRLWYKLADPNARFHAPNHESHGREEVVEMIFKWLKQYDHVEIRIHDVRYYNGQIRMDVELHFRQGDKETSTKLDLILIVVDGRITEVHFDVR | 0.916
DEEERALIVLLLLFEESMRTGDPRLIKELMDPHMRLRFENRHYHGRDEFMEWFKQVDHIFIDRVNIRDVRLIGEWVRIDVEILGTHEQGDKQFEFRRRTHLVVRKVDGRWIMHHVEIR | 1.64
TEHEHEAEDALEKSIRHFHTGDEDTLKHLMDPNVRNDIDGKHIHGREDVLDIMIRIPNVRSEIDDVRVRHVNGRIEVIVDGILYFNGRTVEVRVILIMQKINGKWYITSLEIRRR | 0.628
DERHQDLREVLTRLMHLLLTGDWDEFHRLADPSTQLEVGDFHFHGWEMVVEFLKRFYFHIRLRRFHIEHVRVINGRIDSDTRVESEVNGVRDVERTHVHLNKVDGRWVIKRMHME | 0.966
